Publication PMC6468676, “The Protein Tyrosine Phosphatase H1 PTPH1 Supports Proliferation of Keratinocytes and is a Target of the Human Papillomavirus Type 8 E6 Oncogene” (Cells, 2019)

Target: T1, FLAG-tagged HPV8E6 (E6 oncoprotein of human papillomavirus type 8), wild type (human papillomavirus type 8, UniProt P06428 1-155)
T1 sequence: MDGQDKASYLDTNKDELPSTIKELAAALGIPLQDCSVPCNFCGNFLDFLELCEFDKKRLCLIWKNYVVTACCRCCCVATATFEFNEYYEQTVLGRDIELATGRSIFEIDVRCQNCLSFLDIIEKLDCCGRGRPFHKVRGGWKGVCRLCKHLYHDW
Test: cell-based or functional assay

B1: Myc-tagged protein tyrosine phosphatase H1 (PTPH1), full length (enzyme, UniProt P26045 1-913, looked up)
chain: MTSRLRALGGRINNIRTSELPKEKTRSEVICSIHFLDGVVQTFKVTKQDTGQVLLDMVHNHLGVTEKEYFGLQHDDDSVDSPRWLEASKAIRKQLKGGFPCTLHFRVRFFIPDPNTLQQEQTRHLYFLQLKMDICEGRLTCPLNSAVVLASYAVQSHFGDYNSSIHHPGYLSDSHFIPDQNEDFLTKVESLHEQHSGLKQSEAESCYINIARTLDFYGVELHSGRDLHNLDLMIGIASAGVAVYRKYICTSFYPWVNILKISFKRKKFFIHQRQKQAESREHIVAFNMLNYRSCKNLWKSCVEHHTFFQAKKLLPQEKNVLSQYWTMGSRNTKKSVNNQYCKKVIGGMVWNPAMRRSLSVEHLETKSLPSRSPPITPNWRSPRLRHEIRKPRHSSADNLANEMTYITETEDVFYTYKGSLAPQDSDSEVSQNRSPHQESLSENNPAQSYLTQKSSSSVSPSSNAPGSCSPDGVDQQLLDDFHRVTKGGSTEDASQYYCDKNDNGDSYLVLIRITPDEDGKFGFNLKGGVDQKMPLVVSRINPESPADTCIPKLNEGDQIVLINGRDISEHTHDQVVMFIKASRESHSRELALVIRRRAVRSFADFKSEDELNQLFPEAIFPMCPEGGDTLEGSMAQLKKGLESGTVLIQFEQLYRKKPGLAITFAKLPQNLDKNRYKDVLPYDTTRVLLQGNEDYINASYVNMEIPAANLVNKYIATQGPLPHTCAQFWQVVWDQKLSLIVMLTTLTERGRTKCHQYWPDPPDVMNHGGFHIQCQSEDCTIAYVSREMLVTNTQTGEEHTVTHLQYVAWPDHGVPDDSSDFLEFVNYVRSLRVDSEPVLVHCSAGIGRTGVLVTMETAMCLTERNLPIYPLDIVRKMRDQRAMMVQTSSQYKFVCEAILRVYEEGLVQMLDPS
- Myc-PTPH1 phosphatase activity (Malachite Green PTP assay on precipitated Myc-PTPH1, two phospho-tyrosine peptides) upon co-expression of HPV8E6 compared to the empty FLAG control vector: 2.5 fold
